Experimental data reported in paper PMC9958480, “Structural insights into the recognition of telomeric variant repeat TTGGGG by broad-complex, tramtrack and bric-à-brac - zinc finger protein ZBTB10”.

Molecular target: T1, ZBTB10 ZF1-2 R767Q (human, UniProt Q96DT7 713-779, R767Q)
T1 sequence: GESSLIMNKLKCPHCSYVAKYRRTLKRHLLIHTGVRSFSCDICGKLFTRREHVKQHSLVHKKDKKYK
Assay: X-ray crystallography; Zn2+; 1.9 A, P1; ITC at 20 C, ~30 uM dsDNA in cell, ~300 uM protein in syringe; proteins dialyzed in 20 mM Tris-HCl pH 7.5, 150 mM NaCl (ITC buffer not separately stated)
Details: protein: recombinant; tags: MBP removed by PreScission; 5' overhang 1 nt on each strand (T and A)

B1: TTAGGG crystal duplex (dsDNA)
DNA 1: TTAGGGTTATA
DNA 2: ATATAACCCTA
binding result: binds
